Numbering of substitutions follows the chain as printed. Names and notes keep the numbering of the source.
Biological target: T1, EsCas13d, nuclease-dead (Eubacterium siraeum, UniProt B0MS50, R295A;H300A;R849A;H854A)
T1 sequence: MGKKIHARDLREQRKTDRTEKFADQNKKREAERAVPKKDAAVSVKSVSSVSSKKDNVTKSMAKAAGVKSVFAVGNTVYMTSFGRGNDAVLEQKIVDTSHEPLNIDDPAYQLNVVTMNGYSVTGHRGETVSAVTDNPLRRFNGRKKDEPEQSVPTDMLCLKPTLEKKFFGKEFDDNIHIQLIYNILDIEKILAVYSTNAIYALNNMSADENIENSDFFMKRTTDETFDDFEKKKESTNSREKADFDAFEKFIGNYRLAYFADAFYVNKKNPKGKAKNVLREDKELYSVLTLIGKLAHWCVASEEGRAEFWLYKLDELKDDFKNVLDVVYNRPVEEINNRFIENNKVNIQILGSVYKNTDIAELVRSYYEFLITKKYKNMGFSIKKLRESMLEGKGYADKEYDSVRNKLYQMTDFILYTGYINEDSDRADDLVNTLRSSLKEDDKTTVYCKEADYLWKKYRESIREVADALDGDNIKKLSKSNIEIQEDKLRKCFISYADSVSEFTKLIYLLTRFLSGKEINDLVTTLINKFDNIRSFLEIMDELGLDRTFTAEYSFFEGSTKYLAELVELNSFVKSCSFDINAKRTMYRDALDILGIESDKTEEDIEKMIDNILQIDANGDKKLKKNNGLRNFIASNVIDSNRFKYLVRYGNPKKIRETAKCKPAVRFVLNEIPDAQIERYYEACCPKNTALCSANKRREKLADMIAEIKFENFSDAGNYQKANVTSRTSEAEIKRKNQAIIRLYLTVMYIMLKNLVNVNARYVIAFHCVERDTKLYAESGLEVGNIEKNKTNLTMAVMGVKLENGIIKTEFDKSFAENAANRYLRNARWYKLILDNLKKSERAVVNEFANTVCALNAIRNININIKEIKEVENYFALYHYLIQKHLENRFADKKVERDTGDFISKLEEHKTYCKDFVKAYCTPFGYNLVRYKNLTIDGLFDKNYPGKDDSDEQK
Assay: crRNA (strand 1, pre-loaded); Mg2+; 40 mM Tris-HCl pH 7.5, 150 mM NaCl, 6 mM MgCl2, 1 mM DTT, 0.1% Tween-20, 0.2 mg/ml BSA; 25 C; 10 min per concentration, then washed
Conditions: tags: His6-TwinStrep-SUMO cleaved; N-terminal SNAP kept (SNAP-Surface 488); label: 3' end held by stalled T7 RNA polymerase

B1: target 2 MT 5'PFS CUG 3'PFS UCU (mixed)
RNA 1: CACCCGUGCAAAAUUGCAGGGGUCUAAAACCUUCUCCAAAUUGUUUCAUCCU
RNA 2: GGGAAUGGAUCCACAUCUACGAAUUCCUGAGGAUGAAACAAUUUGGAGAAGUCUAGAUCGGAAGAGCACACGU
- Kd: 6.3 ± 0.4 nM

B2: target 2 MT 5'PFS UGC 3'PFS ACA (mixed)
RNA 1: B1 RNA 1
RNA 2: B1 RNA 2 with C27U, U28G, G29C, U52A, U54A
- Kd: 17 ± 4 nM

B3: target 2 MT 5'PFS GGC 3'PFS AUA (mixed)
RNA 1: B1 RNA 1
RNA 2: B1 RNA 2 with C27G, U28G, G29C, U52A, C53U, U54A
- Kd: 10.8 ± 1 nM

B4: target 2 MT 5'PFS GAG 3'PFS UGC (mixed)
RNA 1: B1 RNA 1
RNA 2: B1 RNA 2 with C27G, U28A, C53G, U54C
- Kd: 7.1 ± 0.7 nM

B5: target 2 MT 5'PFS AUA 3'PFS ACC (mixed)
RNA 1: B1 RNA 1
RNA 2: B1 RNA 2 with C27A, G29A, U52A, U54C
- Kd: 10.7 ± 1.8 nM

B6: target 2 MT 5'PFS AUA 3'PFS ACU (mixed)
RNA 1: B1 RNA 1
RNA 2: B1 RNA 2 with C27A, G29A, U52A
- Kd: 10.7 ± 1.4 nM

B7: target 2 MT 5'PFS UUU 3'PFS UUU (mixed)
RNA 1: B1 RNA 1
RNA 2: B1 RNA 2 with C27U, G29U, C53U
- Kd: 20 ± 4 nM

B8: target 2 MT 5'PFS UAU 3'PFS UAG (mixed)
RNA 1: B1 RNA 1
RNA 2: B1 RNA 2 with C27U, U28A, G29U, C53A, U54G
- Kd: 34 ± 7 nM

B9: target 2 MT 5'PFS AUA 3'PFS ACA (mixed)
RNA 1: B1 RNA 1
RNA 2: B1 RNA 2 with C27A, G29A, U52A, U54A
- Kd: 6.9 ± 1.6 nM

B10: target 2 MT 5'PFS UUU 3'PFS UUA (mixed)
RNA 1: B1 RNA 1
RNA 2: B1 RNA 2 with C27U, G29U, C53U, U54A
- Kd: 9.9 ± 1.3 nM

B11: target 2 MT 5'PFS GUC 3'PFS CGC (mixed)
RNA 1: B1 RNA 1
RNA 2: B1 RNA 2 with C27G, G29C, U52C, C53G, U54C
- Kd: 16.9 ± 1.3 nM

B12: target 2 MT 5'PFS GAG 3'PFS UGA (mixed)
RNA 1: B1 RNA 1
RNA 2: B1 RNA 2 with C27G, U28A, C53G, U54A
- Kd: 9.5 ± 1.8 nM

B13: target 2 MT 5'PFS AUA 3'PFS ACG (mixed)
RNA 1: B1 RNA 1
RNA 2: B1 RNA 2 with C27A, G29A, U52A, U54G
- Kd: 14 ± 5 nM

B14: target 2 MT 5'PFS GGU 3'PFS UGU (mixed)
RNA 1: B1 RNA 1
RNA 2: B1 RNA 2 with C27G, U28G, G29U, C53G
- Kd: 33 ± 4 nM

B15: target 2 MT 5'PFS UGU 3'PFS ACA (mixed)
RNA 1: B1 RNA 1
RNA 2: B1 RNA 2 with C27U, U28G, G29U, U52A, U54A
- Kd: 14.9 ± 3.5 nM

B16: target 2 MT 5'PFS GAG 3'PFS UGU (mixed)
RNA 1: B1 RNA 1
RNA 2: B1 RNA 2 with C27G, U28A, C53G
- Kd: 13.5 ± 1.7 nM

B17: target 2 MT 5'PFS GGC 3'PFS AUG (mixed)
RNA 1: B1 RNA 1
RNA 2: B1 RNA 2 with C27G, U28G, G29C, U52A, C53U, U54G
- Kd: 15.2 ± 1.7 nM

B18: target 2 MT 5'PFS CUA 3'PFS UUA (mixed)
RNA 1: B1 RNA 1
RNA 2: B1 RNA 2 with G29A, C53U, U54A
- Kd: 1.88 ± 0.26 nM

B19: target 2 MT 5'PFS GAA 3'PFS ACG (mixed)
RNA 1: B1 RNA 1
RNA 2: B1 RNA 2 with C27G, U28A, G29A, U52A, U54G
- Kd: 11 ± 1.3 nM

B20: target 2 MT 5'PFS GGC 3'PFS AUU (mixed)
RNA 1: B1 RNA 1
RNA 2: B1 RNA 2 with C27G, U28G, G29C, U52A, C53U
- Kd: 12.4 ± 1.3 nM

B21: target 2 MT 5'PFS GAA 3'PFS ACA (mixed)
RNA 1: B1 RNA 1
RNA 2: B1 RNA 2 with C27G, U28A, G29A, U52A, U54A
- Kd: 12 ± 4 nM

B22: target 2 MT 5'PFS CUA 3'PFS UUC (mixed)
RNA 1: B1 RNA 1
RNA 2: B1 RNA 2 with G29A, C53U, U54C
- Kd: 3.1 ± 0.9 nM

B23: target 2 MT 5'PFS CUA 3'PFS UUU (mixed)
RNA 1: B1 RNA 1
RNA 2: B1 RNA 2 with G29A, C53U
- Kd: 2.61 ± 0.28 nM

B24: target 2 MT 5'PFS GGC 3'PFS AUC (mixed)
RNA 1: B1 RNA 1
RNA 2: B1 RNA 2 with C27G, U28G, G29C, U52A, C53U, U54C
- Kd: 13.2 ± 1.1 nM

B25: target 2 MT 5'PFS GCC 3'PFS AUU (mixed)
RNA 1: B1 RNA 1
RNA 2: B1 RNA 2 with C27G, U28C, G29C, U52A, C53U
- Kd: 10.7 ± 1.3 nM

B26: target 2 MT 5'PFS UGC 3'PFS ACU (mixed)
RNA 1: B1 RNA 1
RNA 2: B1 RNA 2 with C27U, U28G, G29C, U52A
- Kd: ~49 nM

B27: target 2 MT 5'PFS CGC 3'PFS UAG (mixed)
RNA 1: B1 RNA 1
RNA 2: B1 RNA 2 with U28G, G29C, C53A, U54G
- Kd: 3.3 ± 0.5 nM

B28: target 2 MT 5'PFS UGU 3'PFS ACG (mixed)
RNA 1: B1 RNA 1
RNA 2: B1 RNA 2 with C27U, U28G, G29U, U52A, U54G
- Kd: 15 ± 1.9 nM

B29: target 2 MT 5'PFS UGU 3'PFS ACU (mixed)
RNA 1: B1 RNA 1
RNA 2: B1 RNA 2 with C27U, U28G, G29U, U52A
- Kd: 28 ± 12 nM

B30: target 2 MT 5'PFS GAA 3'PFS ACU (mixed)
RNA 1: B1 RNA 1
RNA 2: B1 RNA 2 with C27G, U28A, G29A, U52A
- Kd: 13.3 ± 2.6 nM

B31: target 2 MT 5'PFS GUC 3'PFS CGG (mixed)
RNA 1: B1 RNA 1
RNA 2: B1 RNA 2 with C27G, G29C, U52C, C53G, U54G
- Kd: 18.3 ± 2.1 nM

B32: target 2 MT 5'PFS GUC 3'PFS CGA (mixed)
RNA 1: B1 RNA 1
RNA 2: B1 RNA 2 with C27G, G29C, U52C, C53G, U54A
- Kd: 8.7 ± 0.7 nM

B33: target 1 C6U,A14U (mixed)
RNA 1: CACCCGUGCAAAAAUGCAGGGGUCUAAAACUGAGCGGAUAACCUCUCUAUGG
RNA 2: GGGAAUGGAUCCACAUCUACGAAUUCGUACCAUAGAGUGGUUAUCUGCUCACCGAGAUCGGAAGAGCACACGU
- Kd: 58 ± 20 nM

B34: target 1 G12A,A14U (mixed)
RNA 1: B33 RNA 1
RNA 2: B33 RNA 2 with G40A, U46C
- Kd: 26.3 ± 1.7 nM

B35: target 1 U8C,G12A (mixed)
RNA 1: B33 RNA 1
RNA 2: B33 RNA 2 with U38A, G40A, U44C, U46C
- Kd: 12.5 ± 1 nM

B36: target 1 insC 3' of 8,insC 3' of 3 (mixed)
RNA 1: B33 RNA 1
RNA 2: GGGAAUGGAUCCACAUCUACGAAUUCGUACCAUAGAGAGGUUAUCCCGCUCCACCGAGAUCGGAAGAGCACACGU
- Kd: 13.3 ± 0.7 nM

B37: target 1 C7G,U11G (mixed)
RNA 1: B33 RNA 1
RNA 2: B33 RNA 2 with U38A, U41G, C45G, U46C
- Kd: 24.7 ± 1.5 nM
